Consider six sequences from a protein production outcome set (Wang et al. 2014).

This series in a line: label from the status in PepcDB records.

“YQEPKGELVISAPTMFGRQHVLPVISEFIARYPLIRVRLLLSDRNADLVSDHVDLAVRIGDLADSSMVATRLGTMRIVACAHPALLAKYGEPQRPRDLAALPIIRIESPMPYRGWRFRAAEREDQLINLPPVLSVTTPESA”: the protein production result was “failed”. In the case of “YRATKLWNEVTTSFRAGMPLRKHRQHFKKYGNCFTAGEAVDWLYDLLRNNSNFGPEVTRQQTIQLLRKFLKNHVIEDIKGRWGSENVDDNNQLFRFPA” it was “not failed”. In the case of “YRSKGEYHELLANHVAELSKLQNVLYADNRYAILLIFQAMDAAGKDSAIKHVMSGVNPQGCQVYSFKHPSATELEHDFLWRTNCVLPERGRIGIFNRSYYEEVLVVRVHPEILEMQNIPHNLAHNGKVWDHRYRSIVSHEQHLHCNGTRIVKFYLHLSKEEQRKRFLERIDDPNKNWKFSTADLEERKFWDQYMEAYESCLQETSTKDSPWFAVPADDKKNARLIVSRIVLDTLESLNLKYP” it was “failed”; in that of “YSVTVKWGKEKFEGVELNTDEPPMVFKAQLFALTGVQPARQKVMVKGGTLKDDDWGNIKMKNGMTVLMMGSADALPEEPSAKT”, “not failed”; in that of “YTVEPVQDGERSVTLRRAGGTPLVAAMYHLPAAGSPDFVGLDLAATILADTPSGRLYHALVPTKLASGVFGFTMDQLDPGLAMFGAQLQPGMDQDKALQTLTATLESLSSKPFSQEELERARSKWLTAWQQTYADPEKVGVALSEAIASGDWRLFFLQRDRVRDAKLDDVQRAAVAYLVRSNRTEGRYIPTEKPQRAPLAQR”, “failed”.

For “YTVRLETEHAKEILSSDSPWASLEMFSFYGNYLKLVRTEYEGLRLSSGDTVFFLGSGPLPLTLIVFFRLYGVKSTGIEKDSFRANLSKKVLEKLGLSSVIKIVNGNHFSLSRKDLSLSPDTGVKALMIAAQAEPKKEIFEHLLEVMPIGGRISC”, the protein production result was “failed”.
